Source: paper PMC4882005, “Functional Cooperativity between ABCG4 and ABCG1 Isoforms” (PLoS ONE, 2016)

Molecular target: GFP-ABCG4 (UniProt Q9H172-1 1-646)
Test: co-IP; HEK293 co-transfected with the GFP-tagged and the untagged protein (untagged in excess), lysed 24 h after transfection in 50 mM Tris pH 7.4, 150 mM NaCl, 0.5% NP-40; precipitated with anti-GFP on protein G-sepharose, 2 h at 4°C; Western blot of the precipitate
Settings: partners not purified

Chain of GFP-ABCG4 (Q9H172 whole entry): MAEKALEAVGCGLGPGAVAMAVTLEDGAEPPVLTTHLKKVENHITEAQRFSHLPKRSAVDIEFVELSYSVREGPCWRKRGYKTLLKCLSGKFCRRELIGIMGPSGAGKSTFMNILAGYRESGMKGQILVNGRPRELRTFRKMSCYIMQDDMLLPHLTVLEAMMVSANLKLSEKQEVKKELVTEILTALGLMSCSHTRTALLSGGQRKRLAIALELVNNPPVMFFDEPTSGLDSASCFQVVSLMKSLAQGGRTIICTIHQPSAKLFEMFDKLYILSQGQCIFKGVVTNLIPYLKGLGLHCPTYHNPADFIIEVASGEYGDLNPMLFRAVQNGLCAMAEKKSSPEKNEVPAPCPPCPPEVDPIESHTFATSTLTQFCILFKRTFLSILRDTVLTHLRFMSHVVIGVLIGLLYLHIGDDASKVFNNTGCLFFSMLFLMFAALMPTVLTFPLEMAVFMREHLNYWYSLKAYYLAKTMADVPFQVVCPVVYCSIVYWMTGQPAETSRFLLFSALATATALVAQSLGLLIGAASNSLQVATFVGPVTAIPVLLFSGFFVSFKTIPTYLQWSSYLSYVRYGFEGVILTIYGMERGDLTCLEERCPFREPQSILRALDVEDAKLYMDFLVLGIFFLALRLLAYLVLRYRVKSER

B1: ABCG4 (wild type, untagged) (natural protein)
chain: not shown
notes: the whole cDNA was probably expressed; also called wt ABCG4; source: HEK293, transfected (Fugene HD), in lysate
In the case of B1, the “stoichiometry N” value is reported as ~1.
